Measured values published in patent US20240270821A1, “GIP/GLP1/GCG TRI-RECEPTOR AGONISTS AND USES THEREOF” (priority 2023, published 2024).
Starred links: 1 amine or outer side, 2 acyl side, 3 side chain; linkers in the order of their positions; H or OH if unused. Non-standard residues stand in square brackets, D forms with d. Groups on a side chain read outwards from the residue. No end group written: not given here. *: point of attachment. C18 diacid = O=C(O)CCCCCCCCCCCCCCCCC(=O)*; γGlu = O=C(O)[C@H](CCC(=O)[*:2])N[*:1]; 4Pal = N[C@@H](Cc1ccncc1)C(=O)O; αMeL = CC(C)C[C@](C)(N)C(=O)O; Dab = NCC[C@H](N)C(=O)O; Dap = NC[C@H](N)C(=O)O; AEEA = NCCOCCOCC(=O)O; Aib = CC(C)(N)C(=O)O

T1: human GIP receptor (human) (UniProt P48546)
T1 sequence (looked up): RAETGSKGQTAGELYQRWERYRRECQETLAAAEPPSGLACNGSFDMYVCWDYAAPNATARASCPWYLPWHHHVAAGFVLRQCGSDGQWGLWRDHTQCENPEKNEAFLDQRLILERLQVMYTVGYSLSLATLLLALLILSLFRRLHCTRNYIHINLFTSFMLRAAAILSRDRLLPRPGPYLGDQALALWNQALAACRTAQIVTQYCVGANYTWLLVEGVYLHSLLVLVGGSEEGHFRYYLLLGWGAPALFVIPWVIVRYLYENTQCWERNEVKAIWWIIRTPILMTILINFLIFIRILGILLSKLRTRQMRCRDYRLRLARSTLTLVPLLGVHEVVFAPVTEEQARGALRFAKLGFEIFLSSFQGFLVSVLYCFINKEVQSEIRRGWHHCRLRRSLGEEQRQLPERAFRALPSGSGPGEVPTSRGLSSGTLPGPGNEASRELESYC


Experiments:
Experiment in all cases: cell-based or functional assay
[1] = biological target: hGLP-1R (Homo sapiens, UniProt P43220)
Sequence of hGLP-1R (P43220 24-463): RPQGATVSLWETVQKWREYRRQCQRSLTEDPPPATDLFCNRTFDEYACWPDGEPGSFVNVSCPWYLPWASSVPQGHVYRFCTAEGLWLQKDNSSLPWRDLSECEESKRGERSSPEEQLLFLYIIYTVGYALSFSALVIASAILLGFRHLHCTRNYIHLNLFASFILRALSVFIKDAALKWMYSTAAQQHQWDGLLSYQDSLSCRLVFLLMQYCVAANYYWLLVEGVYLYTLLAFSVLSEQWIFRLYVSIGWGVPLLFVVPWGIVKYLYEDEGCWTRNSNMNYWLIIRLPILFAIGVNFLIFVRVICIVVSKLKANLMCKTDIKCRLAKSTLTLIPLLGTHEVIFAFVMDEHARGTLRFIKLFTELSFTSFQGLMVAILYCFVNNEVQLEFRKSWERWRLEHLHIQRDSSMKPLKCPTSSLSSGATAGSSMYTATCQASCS

[2] = biological target: T1, human GIP receptor (human)
[3] = biological target: human glucagon receptor (human) (UniProt P47871)
Sequence of human glucagon receptor (human) (P47871 26-477): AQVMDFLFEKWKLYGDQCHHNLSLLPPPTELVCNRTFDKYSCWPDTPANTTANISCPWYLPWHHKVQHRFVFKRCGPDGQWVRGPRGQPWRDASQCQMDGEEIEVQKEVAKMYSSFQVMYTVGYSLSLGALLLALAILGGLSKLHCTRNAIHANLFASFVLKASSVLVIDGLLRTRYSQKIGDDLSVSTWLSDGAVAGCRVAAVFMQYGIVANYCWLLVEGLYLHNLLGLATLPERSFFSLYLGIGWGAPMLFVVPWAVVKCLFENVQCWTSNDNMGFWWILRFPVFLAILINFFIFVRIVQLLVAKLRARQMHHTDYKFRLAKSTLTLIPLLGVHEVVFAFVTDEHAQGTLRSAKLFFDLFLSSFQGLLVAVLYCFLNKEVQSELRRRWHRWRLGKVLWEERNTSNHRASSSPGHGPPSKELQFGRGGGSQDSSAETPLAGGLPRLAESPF

| Binder | Relative cAMP EC50 [1] | Relative cAMP EC50 [2] | Relative cAMP EC50 [3] | cAMP Rel EC50, nM (1% HSA) [1] | cAMP Rel EC50, nM (1% HSA) [2] | cAMP Rel EC50, nM (1% HSA) [3] |
| --- | --- | --- | --- | --- | --- | --- |
| YXQGTXTSDXXIXLDXKAAXEFIEXLLEGGPSSGAPPPSGS (synthetic construct; SITE 2: note = 2-Aminoisobutyric Acid; SITE 6: note = alpha-methyl-2-fluoro-L-phenylalanine; SITE 10: note = 3-(4-Pyridyl)-L-alanine; SITE 11: note = alpha-methyl-L-serine; SITE 13: note = alpha-methyl-leucine; SITE 16: note = L-ornithine; SITE 17: note = Lysine is chemically mo) [Example 672 (SEQ ID NO: 678)] | 0.389 nM | 0.014 nM | 1.19 nM | – | – | – |
| YXQGTXTSDXXIXLDXKAAXEFIEXLVEGGPSSGAPPPSGS (synthetic construct; SITE 2: note = 2-Aminoisobutyric Acid; SITE 6: note = alpha-methyl-2-fluoro-L-phenylalanine; SITE 10: note = 3-(4-Pyridyl)-L-alanine; SITE 11: note = alpha-methyl-L-serine; SITE 13: note = alpha-methyl-leucine; SITE 16: note = L-ornithine; SITE 17: note = Lysine is chemically mo) [Example 693 (SEQ ID NO: 699)] | 0.161 nM | 0.0104 nM | 2.39 nM | – | – | – |
| YXQGTXTSDXXIXLDXKAAXEFIEXLVEGGPSSGEPPPSGS (synthetic construct; SITE 2: note = 2-Aminoisobutyric Acid; SITE 6: note = alpha-methyl-2-fluoro-L-phenylalanine; SITE 10: note = 3-(4-Pyridyl)-L-alanine; SITE 11: note = alpha-methyl-L-serine; SITE 13: note = alpha-methyl-leucine; SITE 16: note = L-ornithine; SITE 17: note = Lysine is chemically mo) [Example 695 (SEQ ID NO: 701)] | 0.254 nM | 0.0136 nM | 1.93 nM | – | – | – |
| Y[Aib]QGTFTSD[4Pal]S[Dab][αMeL]LDKK([AEEA-γGlu-C18 diacid])AQ[Aib]AFIEYLIE[Aib]GPSSGAPPPSGS-NH2 [Example 803] | 2.02 nM | 0.232 nM | 9.75 nM | – | – | – |
| YXQGTFTSDFSXXLDKKAQXAFIEYLLEGGPSSGAPPPGGS (not fully specified; free C-terminus (not amidated); synthetic construct; SITE 2: note = 2-Aminoisobutyric Acid; SITE 12: note = L-ornithine; SITE 13: note = alpha-methyl-leucine; SITE 17: note = Lysine is chemically modified through conjugation of the epsilon-amino group of the Lysine side chain with (2-[2-(2-Amino-ethoxy)-ethoxy]-acetyl)-(gamma-Glu)) [Example 196] | – | – | – | 458 nM | 51.4 nM | 620 nM |
| YXQGTFTSDXSXXLDKKAQXAFIEXLIEGGPSSGAPPPSGS (synthetic construct; SITE 2: note = 2-Aminoisobutyric Acid; SITE 10: note = 3-(4-Pyridyl)-L-alanine; SITE 12: note = L-ornithine; SITE 13: note = alpha-methyl-leucine; SITE 17: note = Lysine is chemically modified through conjugation of the epsilon-amino group of the Lysine side chain with (gamma-Gl)) [Example 941] | 0.764 nM | 0.183 nM | 11.7 nM | – | – | – |
| YXQGTFTSDFSQXLDKKAQXAFIEYLIAGGPSSGAPPPSGS (not fully specified; synthetic construct; SITE 2: note = 2-Aminoisobutyric Acid; SITE 13: note = alpha-methyl-leucine; SITE 17: note = Lysine is chemically modified through conjugation of the epsilon-amino group of the Lysine side chain with (gamma-Glu)2-CO-(CH2)16-CO2H; SITE 20: note = 3-(4-Pyridyl)-L-alanine; SITE 41:) [Example 876] | 0.456 nM | 0.053 nM | 3.28 nM | – | – | – |
| YXQGTFTSDXSXXLDKKAQXAFIEXLLEGGPSSGAPPPSGS (synthetic construct; SITE 2: note = 2-Aminoisobutyric Acid; SITE 10: note = 3-(4-Pyridyl)-L-alanine; SITE 12: note = L-ornithine; SITE 13: note = alpha-methyl-leucine; SITE 17: note = Lysine is chemically modified through conjugation of the epsilon-amino group of the Lysine side chain with (gamma-Gl)) [Example 942] | 3.52 nM | 0.188 nM | 6.32 nM | – | – | – |
| YXQGTFTSDFSQXLDKKAQXAFIEXLIEGGPSSGAPPPSGS (synthetic construct; SITE 2: note = 2-Aminoisobutyric Acid; SITE 13: note = alpha-methyl-leucine; SITE 17: note = Lysine is chemically modified through conjugation of the epsilon-amino group of the Lysine side chain with (2-[2-(2-Amino-ethoxy)-ethoxy]-acetyl)-(gamma-Glu)-CO-(CH2) 16-CO2H; SITE 20: n) [Example 841] | 0.336 nM | 0.194 nM | 9.71 nM | – | – | – |
| YXQGTFTSDXSQXLDKKAQXAFIEWLIEGGPSSGAPPPSGS (synthetic construct; SITE 2: note = 2-Aminoisobutyric Acid; SITE 10: note = 3-(4-Pyridyl)-L-alanine; SITE 13: note = alpha-methyl-leucine; SITE 17: note = Lysine is chemically modified through conjugation of the epsilon-amino group of the Lysine side chain with (gamma-Glu)2-CO-(CH2)16-CO2H; SITE 20:) [Example 872] | 1.01 nM | 0.205 nM | 4.18 nM | – | – | – |
| YXQGTFTSDFSQXLDKKAQXAFIEYLIAGGPSSGAPPPSGS (synthetic construct; SITE 2: note = 2-Aminoisobutyric Acid; SITE 13: note = alpha-methyl-leucine; SITE 17: note = Lysine is chemically modified through conjugation of the epsilon-amino group of the Lysine side chain with (2-[2-(2-Amino-ethoxy)-ethoxy]-acetyl)-(gamma-Glu)-CO-(CH2) 16-CO2H; SITE 20: n) [Example 875] | 0.771 nM | 0.101 nM | 3.65 nM | – | – | – |
| YXQGTFTSDXSQXLDKKAQXAFIEXLLEGGPSSGAPPPSGS (synthetic construct; SITE 2: note = 2-Aminoisobutyric Acid; SITE 10: note = 3-(4-Pyridyl)-L-alanine; SITE 13: note = alpha-methyl-leucine; SITE 17: note = Lysine is chemically modified through conjugation of the epsilon-amino group of the Lysine side chain with (gamma-Glu)2-CO-(CH2)16-CO2H; SITE 20:) [Example 938] | 1.84 nM | 0.13 nM | 13.3 nM | – | – | – |
| Y[Aib]QGTFTSDFS[Dap][αMeL]LDKK([γGlu-γGlu-C18 diacid])AQ[Aib]AFIEYLLE[Aib]GPSSGAPPPSGS-NH2 [Example 203] | – | – | – | 532 nM | 19 nM | 1160 nM |
| YXQGTFTSDXSRXLDKKAQXAFIEYLIEXSPSSGAPPPSGS (synthetic construct; SITE 2: note = 2-Aminoisobutyric Acid; SITE 10: note = 3-(4-Pyridyl)-L-alanine; SITE 13: note = alpha-methyl-leucine; SITE 17: note = Lysine is chemically modified through conjugation of the epsilon-amino group of the Lysine side chain with (2-[2-(2-Amino-ethoxy)-ethoxy]-acetyl)) [Example 807] | 1.72 nM | 0.108 nM | 12.4 nM | – | – | – |
| YXQGTXTSDXSIXLDXKAQXXFIEXLIEGGPSSGEPPPSGE (synthetic construct; SITE 2: note = 2-Aminoisobutyric Acid; SITE 6: note = alpha-methyl-2-fluoro-L-phenylalanine; SITE 10: note = 3-(4-Pyridyl)-L-alanine; SITE 13: note = alpha-methyl-leucine; SITE 16: note = L-ornithine; SITE 17: note = Lysine is chemically modified through conjugation of the epsil) [Example 682 (SEQ ID NO: 688)] | 0.212 nM | 0.00661 nM | 1.91 nM | – | – | – |
| YXQGTFTSDXSQXLDKKAQXAFIEXLIEXGPSSGAPPPSGTE (acylated Lys AEEA-γGlu-C18 diacid; non-natural residues; C-terminal amide; synthetic construct; SITE 2: note = 2-Aminoisobutyric Acid; SITE 10: note = 3-(4-Pyridyl)-L-alanine; SITE 13: note = alpha-methyl-leucine; SITE 17: note = Lysine is chemically modified through conjugation of the epsilon-amino group of the Lysine side chain with (2-[2-(2-Amino-ethoxy)-ethoxy]-acetyl)) [Example 1116] | 4.63 nM | 0.134 nM | 8.2 nM | – | – | – |
| YXQGTFTSDXSQXLDKKAQXAFIEXLIEXGPSSGAPPPSGTE (Lys acylated with (γGlu)2-C18 diacid; non-natural residues; C-amide; synthetic construct; SITE 2: note = 2-Aminoisobutyric Acid; SITE 10: note = 3-(4-Pyridyl)-L-alanine; SITE 13: note = alpha-methyl-leucine; SITE 17: note = Lysine is chemically modified through conjugation of the epsilon-amino group of the Lysine side chain with (gamma-Glu)2-CO-(CH2)16-CO2H; SITE 20:) [Example 1118] | 5.42 nM | 0.128 nM | 6.52 nM | – | – | – |
| YXQGTFTSDXSQXLDKKAQXAFIEYLIEXGPSSGAPPPSGSGE (not fully specified; possible C-terminal amide; synthetic construct; SITE 2: note = 2-Aminoisobutyric Acid; SITE 10: note = 3-(4-Pyridyl)-L-alanine; SITE 13: note = alpha-methyl-leucine; SITE 17: note = Lysine is chemically modified through conjugation of the epsilon-amino group of the Lysine side chain with (gamma-Glu)2-CO-(CH2)16-CO2H; SITE 20:) [Example 891] | 3.25 nM | 0.155 nM | 3.14 nM | – | – | – |
| YXQGTFTSDXSQXLDXKAQXAFIEXLIEXGPSSGAPPPSGSEE (non-natural residues; C18 diacid-γGlu-AEEA on Lys; C-terminal amide; synthetic construct; SITE 2: note = 2-Aminoisobutyric Acid; SITE 10: note = 3-(4-Pyridyl)-L-alanine; SITE 13: note = alpha-methyl-leucine; SITE 16: note = L-ornithine; SITE 17: note = Lysine is chemically modified through conjugation of the epsilon-amino group of the Lysine side chain with (2-[2-(2-) [Example 1108] | 0.752 nM | 0.0507 nM | 4.96 nM | – | – | – |
